Laboratory results taken from patent US20150258192A1, “COMPOSITIONS AND METHODS FOR PREVENTING OR TREATING CHRONIC LUNG ALLOGRAFT DYSFUNCTION (CLAD) AND IDIOPATHIC PULMONARY FIBROSIS (IPF)” (priority 2014, published 2015).
No end group written: not given here.

biological target: EphA2(h) (Homo sapiens, UniProt P29317); test: Kinase Profiling Assay; type: biochemical; settings: peptide 100 μM
Outline: (§1)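 Specificity of MK2 inhibitory peptides is assessed against a panel of 266 human kinases. Kinase transfers a radiolabeled phosphate from ATP onto a positively charged substrate, which is trapped on a negatively charged filter and quantified by scintillation counting against full-activity control; duplicate determinations.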

In order of rising “% activity” value:
1. KAFAKLAARLYRKALARQLGVAA [MMI-0400]  17%
2. FAKLAARLYRKALARQLGVAA [MMI-0300]  31%
3. YARAAARQARAKALNRQLGVA (Mammal) [MMI-0200]  95%

biological target: T1, MST2(h) (Homo sapiens, UniProt Q13188); test: Kinase Profiling Assay; type: biochemical; settings: peptide 100 μM
T1 construct: purchased Millipore
T1 sequence (Q13188 1-491): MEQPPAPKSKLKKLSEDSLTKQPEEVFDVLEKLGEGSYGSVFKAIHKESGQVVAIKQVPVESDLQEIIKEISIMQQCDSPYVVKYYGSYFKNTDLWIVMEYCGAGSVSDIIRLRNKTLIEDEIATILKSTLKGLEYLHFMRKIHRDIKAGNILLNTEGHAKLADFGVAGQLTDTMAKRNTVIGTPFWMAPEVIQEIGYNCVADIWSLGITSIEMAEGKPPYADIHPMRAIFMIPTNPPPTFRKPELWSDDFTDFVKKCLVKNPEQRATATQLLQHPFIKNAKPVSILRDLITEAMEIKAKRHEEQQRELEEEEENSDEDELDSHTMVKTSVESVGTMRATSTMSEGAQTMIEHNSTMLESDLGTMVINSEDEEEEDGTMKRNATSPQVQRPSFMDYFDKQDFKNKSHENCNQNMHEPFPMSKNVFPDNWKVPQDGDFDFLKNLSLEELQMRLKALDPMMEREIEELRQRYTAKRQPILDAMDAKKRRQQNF
Outline: as §1

In order of rising “% activity” value:
1. HRRIKAWLKKIKALARQLGVAA (Mammal) [MMI-0500]  2%
2. KAFAKLAARLYRKALARQLGVAA [MMI-0400]  11%
3. FAKLAARLYRKALARQLGVAA [MMI-0300]  19%
4. YARAAARQARAKALARQLGVAA [MMI-0100]  98%

biological target: T2, Hck(h) (Homo sapiens, UniProt P08631); test: Kinase Profiling Assay; type: biochemical; settings: peptide 100 μM
T2 construct: purchased Millipore
Outline: as §1

T2 sequence (P08631 whole entry): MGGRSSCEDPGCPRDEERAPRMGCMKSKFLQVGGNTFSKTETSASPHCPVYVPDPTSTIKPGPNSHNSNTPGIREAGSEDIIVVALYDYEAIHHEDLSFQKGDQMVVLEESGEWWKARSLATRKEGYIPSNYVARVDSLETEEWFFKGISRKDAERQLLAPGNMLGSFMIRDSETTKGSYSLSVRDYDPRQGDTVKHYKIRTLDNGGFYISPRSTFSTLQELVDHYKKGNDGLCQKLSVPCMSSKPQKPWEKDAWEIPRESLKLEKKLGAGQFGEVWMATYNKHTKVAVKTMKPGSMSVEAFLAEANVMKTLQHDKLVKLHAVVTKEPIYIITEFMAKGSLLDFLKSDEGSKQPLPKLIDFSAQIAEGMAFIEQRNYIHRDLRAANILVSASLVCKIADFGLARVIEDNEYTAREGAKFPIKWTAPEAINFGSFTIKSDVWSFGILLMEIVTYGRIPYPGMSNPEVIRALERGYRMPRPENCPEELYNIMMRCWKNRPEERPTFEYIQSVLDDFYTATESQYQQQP

In order of falling “% activity” value:
1. HRRIKAWLKKIKALARQLGVAA (Mammal) [MMI-0500]  78%
2. FAKLAARLYRKALARQLGVAA [MMI-0300]  72%
3. KAFAKLAARLYRKALARQLGVAA [MMI-0400]  72%

biological target: T3, MuSK(h) (Homo sapiens, UniProt O15146); test: Kinase Profiling Assay; type: biochemical; settings: peptide 100 μM
T3 construct: purchased Millipore
T3 sequence (O15146 24-869): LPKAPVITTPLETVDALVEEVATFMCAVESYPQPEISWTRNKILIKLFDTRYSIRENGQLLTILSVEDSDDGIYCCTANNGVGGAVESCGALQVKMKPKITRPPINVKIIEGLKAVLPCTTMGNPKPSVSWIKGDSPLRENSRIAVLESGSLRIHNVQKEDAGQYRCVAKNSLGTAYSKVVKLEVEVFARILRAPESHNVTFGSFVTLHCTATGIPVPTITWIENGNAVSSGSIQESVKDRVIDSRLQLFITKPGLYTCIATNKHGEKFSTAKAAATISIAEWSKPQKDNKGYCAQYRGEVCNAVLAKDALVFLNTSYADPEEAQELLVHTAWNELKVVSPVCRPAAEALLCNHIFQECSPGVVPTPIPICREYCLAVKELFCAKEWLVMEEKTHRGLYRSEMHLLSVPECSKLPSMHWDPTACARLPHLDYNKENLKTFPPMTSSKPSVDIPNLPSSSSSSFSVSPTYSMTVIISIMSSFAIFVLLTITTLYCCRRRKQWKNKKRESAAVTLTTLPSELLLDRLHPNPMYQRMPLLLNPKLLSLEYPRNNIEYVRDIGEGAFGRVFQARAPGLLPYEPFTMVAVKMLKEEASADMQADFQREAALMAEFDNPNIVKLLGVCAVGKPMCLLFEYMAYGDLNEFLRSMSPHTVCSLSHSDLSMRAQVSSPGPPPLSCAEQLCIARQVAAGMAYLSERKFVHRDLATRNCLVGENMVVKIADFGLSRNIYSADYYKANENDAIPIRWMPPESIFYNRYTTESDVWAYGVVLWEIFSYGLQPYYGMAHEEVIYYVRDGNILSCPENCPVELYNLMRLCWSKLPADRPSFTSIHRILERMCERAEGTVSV
Outline: as §1

In order of falling “% activity” value:
1. FAKLAARLYRKALARQLGVAA [MMI-0300]  93%
2. KAFAKLAARLYRKALARQLGVAA [MMI-0400]  93%
3. YARAAARQARAKALARQLGVAA [MMI-0100]  85%
4. HRRIKAWLKKIKALARQLGVAA (Mammal) [MMI-0500]  27%

biological target: ACK1(h) (Homo sapiens, UniProt Q07912); test: Kinase Profiling Assay; type: biochemical; settings: peptide 100 μM
Outline: as §1

Chain of ACK1(h) (Q07912 whole entry): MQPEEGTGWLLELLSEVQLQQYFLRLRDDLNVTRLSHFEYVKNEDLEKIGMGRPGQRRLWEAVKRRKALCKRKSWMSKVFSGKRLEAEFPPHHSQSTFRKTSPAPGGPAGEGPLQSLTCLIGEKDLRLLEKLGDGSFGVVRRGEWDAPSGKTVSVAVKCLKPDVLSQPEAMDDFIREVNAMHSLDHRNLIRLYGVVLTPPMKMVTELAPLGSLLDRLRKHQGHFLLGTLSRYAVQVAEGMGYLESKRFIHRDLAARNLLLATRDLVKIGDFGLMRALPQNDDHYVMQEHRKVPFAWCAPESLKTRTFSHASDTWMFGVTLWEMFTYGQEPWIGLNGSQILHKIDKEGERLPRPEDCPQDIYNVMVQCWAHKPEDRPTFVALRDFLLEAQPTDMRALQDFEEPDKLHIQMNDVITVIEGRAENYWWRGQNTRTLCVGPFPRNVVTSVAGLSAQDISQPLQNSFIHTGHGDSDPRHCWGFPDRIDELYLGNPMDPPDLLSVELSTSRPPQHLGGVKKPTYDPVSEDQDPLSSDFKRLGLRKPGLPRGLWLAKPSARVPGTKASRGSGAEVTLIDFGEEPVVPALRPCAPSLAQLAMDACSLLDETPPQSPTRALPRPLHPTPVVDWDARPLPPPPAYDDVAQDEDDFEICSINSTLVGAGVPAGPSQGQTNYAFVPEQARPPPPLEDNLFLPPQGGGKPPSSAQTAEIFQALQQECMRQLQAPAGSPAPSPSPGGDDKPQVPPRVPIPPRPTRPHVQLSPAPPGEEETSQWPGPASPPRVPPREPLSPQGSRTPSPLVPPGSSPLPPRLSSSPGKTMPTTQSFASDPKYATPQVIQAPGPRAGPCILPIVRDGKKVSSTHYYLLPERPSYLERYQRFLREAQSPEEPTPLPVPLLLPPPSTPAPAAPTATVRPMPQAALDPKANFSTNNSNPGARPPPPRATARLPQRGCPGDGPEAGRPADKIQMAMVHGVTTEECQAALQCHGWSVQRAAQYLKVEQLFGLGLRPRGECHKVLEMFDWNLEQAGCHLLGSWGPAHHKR

In order of falling “% activity” value:
1. YARAAARQARAKALNRQLGVA (Mammal) [MMI-0200]  97%
2. KAFAKLAARLYRKALARQLGVAA [MMI-0400]  95%
3. HRRIKAWLKKIKALARQLGVAA (Mammal) [MMI-0500]  64%

biological target: Pyk2(h) (Homo sapiens, UniProt Q14289); test: Kinase Profiling Assay; type: biochemical; settings: peptide 100 μM
Outline: as §1

Chain of Pyk2(h) (Q14289 whole entry): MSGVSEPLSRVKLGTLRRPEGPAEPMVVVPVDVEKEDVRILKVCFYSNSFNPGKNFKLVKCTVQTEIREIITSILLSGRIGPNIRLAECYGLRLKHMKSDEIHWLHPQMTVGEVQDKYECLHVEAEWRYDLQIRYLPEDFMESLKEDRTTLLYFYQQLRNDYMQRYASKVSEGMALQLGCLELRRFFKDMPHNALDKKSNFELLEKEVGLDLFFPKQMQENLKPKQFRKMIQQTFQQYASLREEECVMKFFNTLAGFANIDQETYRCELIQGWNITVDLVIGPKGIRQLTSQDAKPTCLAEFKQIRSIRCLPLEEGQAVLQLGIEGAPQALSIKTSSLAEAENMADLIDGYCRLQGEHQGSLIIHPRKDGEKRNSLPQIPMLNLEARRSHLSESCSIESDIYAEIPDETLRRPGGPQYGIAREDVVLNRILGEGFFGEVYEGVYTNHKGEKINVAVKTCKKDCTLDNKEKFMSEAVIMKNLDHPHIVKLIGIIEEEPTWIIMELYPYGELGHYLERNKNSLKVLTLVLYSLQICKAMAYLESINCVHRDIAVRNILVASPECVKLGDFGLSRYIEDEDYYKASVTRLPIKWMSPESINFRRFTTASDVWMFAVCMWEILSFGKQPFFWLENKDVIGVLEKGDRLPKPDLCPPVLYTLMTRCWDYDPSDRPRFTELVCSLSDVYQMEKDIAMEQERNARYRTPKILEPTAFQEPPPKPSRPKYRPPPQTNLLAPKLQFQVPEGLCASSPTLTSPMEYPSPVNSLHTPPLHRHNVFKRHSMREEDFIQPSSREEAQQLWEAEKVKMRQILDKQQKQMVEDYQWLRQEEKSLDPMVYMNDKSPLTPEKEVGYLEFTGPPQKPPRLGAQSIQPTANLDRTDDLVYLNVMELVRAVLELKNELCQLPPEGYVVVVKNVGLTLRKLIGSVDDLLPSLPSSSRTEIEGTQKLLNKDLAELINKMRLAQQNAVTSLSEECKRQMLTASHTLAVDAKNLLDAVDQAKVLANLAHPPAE

In order of rising “% activity” value:
1. KAFAKLAARLYRKALARQLGVAA [MMI-0400]  34%
2. HRRIKAWLKKIKALARQLGVAA (Mammal) [MMI-0500]  46%
3. FAKLAARLYRKALARQLGVAA [MMI-0300]  47%
4. YARAAARQARAKALNRQLGVA (Mammal) [MMI-0200]  127%

biological target: T4, Rsk4(h) (Homo sapiens, UniProt Q9UK32); test: Kinase Profiling Assay; type: biochemical; settings: peptide 100 μM
T4 construct: purchased Millipore
Outline: as §1

T4 sequence (Q9UK32 whole entry): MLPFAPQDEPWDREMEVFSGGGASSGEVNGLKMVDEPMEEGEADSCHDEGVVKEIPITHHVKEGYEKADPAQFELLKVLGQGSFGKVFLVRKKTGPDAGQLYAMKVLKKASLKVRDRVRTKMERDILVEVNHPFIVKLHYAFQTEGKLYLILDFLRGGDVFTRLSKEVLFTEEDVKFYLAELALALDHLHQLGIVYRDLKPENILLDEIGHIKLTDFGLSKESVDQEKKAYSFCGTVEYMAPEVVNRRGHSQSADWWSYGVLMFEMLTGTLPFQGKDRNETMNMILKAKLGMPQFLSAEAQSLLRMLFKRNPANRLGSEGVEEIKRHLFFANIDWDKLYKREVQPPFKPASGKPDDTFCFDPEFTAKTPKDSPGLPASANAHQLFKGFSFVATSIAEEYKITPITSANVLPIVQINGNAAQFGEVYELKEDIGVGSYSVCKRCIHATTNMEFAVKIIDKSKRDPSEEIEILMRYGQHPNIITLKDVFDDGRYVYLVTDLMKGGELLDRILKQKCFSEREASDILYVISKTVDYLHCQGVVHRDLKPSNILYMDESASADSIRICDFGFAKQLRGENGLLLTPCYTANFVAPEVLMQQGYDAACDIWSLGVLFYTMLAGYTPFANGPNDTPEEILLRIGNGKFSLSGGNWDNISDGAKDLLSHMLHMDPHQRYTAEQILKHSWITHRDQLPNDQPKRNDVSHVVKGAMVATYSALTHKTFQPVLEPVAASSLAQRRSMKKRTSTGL

In order of falling “% activity” value:
1. YARAAARQARAKALNRQLGVA (Mammal) [MMI-0200]  125%
2. YARAAARQARAKALARQLGVAA [MMI-0100]  99%
3. KAFAKLAARLYRKALARQLGVAA [MMI-0400]  91%
4. FAKLAARLYRKALARQLGVAA [MMI-0300]  90%
5. HRRIKAWLKKIKALARQLGVAA (Mammal) [MMI-0500]  29%

biological target: T5, LIMK1(h) (Homo sapiens, UniProt P53667); test: Kinase Profiling Assay; type: biochemical; settings: peptide 100 μM
T5 construct: purchased Millipore
Outline: as §1

T5 sequence (P53667 whole entry): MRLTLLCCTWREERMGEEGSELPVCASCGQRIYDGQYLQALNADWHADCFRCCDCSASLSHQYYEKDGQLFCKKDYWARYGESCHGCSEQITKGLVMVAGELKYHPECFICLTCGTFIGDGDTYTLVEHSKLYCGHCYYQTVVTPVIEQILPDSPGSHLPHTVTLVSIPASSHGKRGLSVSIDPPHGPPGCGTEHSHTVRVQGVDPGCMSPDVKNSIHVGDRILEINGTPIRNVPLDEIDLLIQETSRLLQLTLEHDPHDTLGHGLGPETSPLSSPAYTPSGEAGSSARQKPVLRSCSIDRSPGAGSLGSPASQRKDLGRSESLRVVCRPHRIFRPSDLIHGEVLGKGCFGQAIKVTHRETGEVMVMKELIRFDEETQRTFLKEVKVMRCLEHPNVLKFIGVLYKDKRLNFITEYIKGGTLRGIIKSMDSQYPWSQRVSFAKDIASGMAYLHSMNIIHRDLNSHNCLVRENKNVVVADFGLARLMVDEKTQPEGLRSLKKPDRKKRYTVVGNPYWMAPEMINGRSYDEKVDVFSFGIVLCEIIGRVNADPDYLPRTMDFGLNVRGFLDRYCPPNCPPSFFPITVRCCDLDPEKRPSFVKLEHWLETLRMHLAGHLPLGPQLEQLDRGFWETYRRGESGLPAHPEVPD

In order of falling “% activity” value:
1. KAFAKLAARLYRKALARQLGVAA [MMI-0400]  92%
2. FAKLAARLYRKALARQLGVAA [MMI-0300]  88%
3. HRRIKAWLKKIKALARQLGVAA (Mammal) [MMI-0500]  87%

biological target: T6, EphA3(h) (Homo sapiens, UniProt P29320); test: Kinase Profiling Assay; type: biochemical; settings: peptide 100 μM
T6 sequence (P29320 21-983): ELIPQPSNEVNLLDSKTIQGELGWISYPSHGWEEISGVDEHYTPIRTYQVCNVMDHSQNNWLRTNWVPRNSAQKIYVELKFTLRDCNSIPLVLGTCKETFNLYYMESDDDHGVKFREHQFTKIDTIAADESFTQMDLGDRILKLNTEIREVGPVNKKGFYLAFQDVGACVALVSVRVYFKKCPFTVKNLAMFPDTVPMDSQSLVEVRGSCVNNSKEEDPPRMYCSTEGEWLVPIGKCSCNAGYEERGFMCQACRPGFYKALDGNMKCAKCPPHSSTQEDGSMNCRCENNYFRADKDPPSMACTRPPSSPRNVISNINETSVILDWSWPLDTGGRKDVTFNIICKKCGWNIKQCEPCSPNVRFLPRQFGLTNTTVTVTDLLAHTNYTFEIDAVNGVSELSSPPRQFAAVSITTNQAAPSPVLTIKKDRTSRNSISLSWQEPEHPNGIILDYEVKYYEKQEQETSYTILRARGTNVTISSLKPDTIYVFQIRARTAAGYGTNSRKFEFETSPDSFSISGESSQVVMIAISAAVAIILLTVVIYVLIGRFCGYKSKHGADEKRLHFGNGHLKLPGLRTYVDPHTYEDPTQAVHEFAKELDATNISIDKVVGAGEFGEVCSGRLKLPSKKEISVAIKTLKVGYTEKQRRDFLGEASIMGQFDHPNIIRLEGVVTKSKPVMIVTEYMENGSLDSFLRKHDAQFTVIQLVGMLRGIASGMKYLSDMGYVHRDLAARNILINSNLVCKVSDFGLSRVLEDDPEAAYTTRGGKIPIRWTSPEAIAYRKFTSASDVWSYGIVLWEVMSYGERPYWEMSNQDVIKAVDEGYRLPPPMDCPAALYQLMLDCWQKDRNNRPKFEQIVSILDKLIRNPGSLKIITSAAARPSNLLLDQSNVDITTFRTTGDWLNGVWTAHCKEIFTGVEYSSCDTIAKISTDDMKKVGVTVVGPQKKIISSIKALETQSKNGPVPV
Outline: as §1

In order of falling “% activity” value:
1. HRRIKAWLKKIKALARQLGVAA (Mammal) [MMI-0500]  33%
2. KAFAKLAARLYRKALARQLGVAA [MMI-0400]  12%
3. FAKLAARLYRKALARQLGVAA [MMI-0300]  6%
